Molecular target: biotinylated His-Avi-TEAD (194-411) (UniProt P28347)
Assay: SSM screen, enrichment after two rounds of sorting

enrichment score	Binder
-1.28	GSPDEYIEWAKECCKKGDIQCCLRYFEESGDPNVMLICLFCP (designed binder) [R07W variant of SEQ ID NO: 1]
-2.33	GSPDEYIYRAKECCKKGDIQCCLRYFEESGDPNVMLICLFCP (designed binder) [E06Y variant of SEQ ID NO: 1]
0.53	GSPDEYIERAKECCKHGDIQCCLRYFEESGDPNVMLICLFCP (designed binder) [K14H variant of SEQ ID NO: 1]
-5.4	GSPDEYIERAKECCKKGDGQCCLRYFEESGDPNVMLICLFCP (designed binder) [I17G variant of SEQ ID NO: 1]
-4.96	GSPDEYIERAYECCKKGDIQCCLRYFEESGDPNVMLICLFCP (designed binder) [K09Y variant of SEQ ID NO: 1]
-0.81	GSPDEYIERAKECCRKGDIQCCLRYFEESGDPNVMLICLFCP (designed binder) [K13R variant of SEQ ID NO: 1]
-9.54	GSPDEYIERAKECCKKGGIQCCLRYFEESGDPNVMLICLFCP (designed binder) [D16G variant of SEQ ID NO: 1]
0.91	GSPDEYIERAKECCKKRDIQCCLRYFEESGDPNVMLICLFCP (designed binder) [G15R variant of SEQ ID NO: 1]
-4.5	GSPDEYIERAPECCKKGDIQCCLRYFEESGDPNVMLICLFCP (designed binder) [K09P variant of SEQ ID NO: 1]
-3.33	GSYDEYIERAKECCKKGDIQCCLRYFEESGDPNVMLICLFCP (designed binder) [P01Y variant of SEQ ID NO: 1]
-3.6	GSPDEYIERAKECCKKGEIQCCLRYFEESGDPNVMLICLFCP (designed binder) [D16E variant of SEQ ID NO: 1]
-4.55	GSPDEYIERAKECCKKGHIQCCLRYFEESGDPNVMLICLFCP (designed binder) [D16H variant of SEQ ID NO: 1]
-0.92	GSPDEYIERAKECCKMGDIQCCLRYFEESGDPNVMLICLFCP (designed binder) [K14M variant of SEQ ID NO: 1]
-1.06	GSPDEYIERAKECCKRGDIQCCLRYFEESGDPNVMLICLFCP (designed binder) [K14R variant of SEQ ID NO: 1]
-0.26	GSPDEYIERAKECCKKDDIQCCLRYFEESGDPNVMLICLFCP (designed binder) [G15D variant of SEQ ID NO: 1]
-0.1	GSPDEYIERAKECCEKGDIQCCLRYFEESGDPNVMLICLFCP (designed binder) [K13E variant of SEQ ID NO: 1]
-0.36	GSPDYYIERAKECCKKGDIQCCLRYFEESGDPNVMLICLFCP (designed binder) [E03Y variant of SEQ ID NO: 1]
-5.61	GSPDEYIERAKYCCKKGDIQCCLRYFEESGDPNVMLICLFCP (designed binder) [E10Y variant of SEQ ID NO: 1]
-6.95	GSPDEYIERAKECCKKGKIQCCLRYFEESGDPNVMLICLFCP (designed binder) [D16K variant of SEQ ID NO: 1]

enrichment score	Binder
-0.3	GSPDEYIERAKECCKKGDEQCCLRYFEESGDPNVMLICLFCP (designed binder) [I17E variant of SEQ ID NO: 1]
-2.84	GSPDEYIPRAKECCKKGDIQCCLRYFEESGDPNVMLICLFCP (designed binder) [E06P variant of SEQ ID NO: 1]
-10.9	GSPDEYYERAKECCKKGDIQCCLRYFEESGDPNVMLICLFCP (designed binder) [I05Y variant of SEQ ID NO: 1]
-3.72	GSPDEYIERAKPCCKKGDIQCCLRYFEESGDPNVMLICLFCP (designed binder) [E10P variant of SEQ ID NO: 1]
-4.53	GSPDEYIERAKECCKKGDKQCCLRYFEESGDPNVMLICLFCP (designed binder) [I17K variant of SEQ ID NO: 1]
0.43	GSPDEYIERAKECCDKGDIQCCLRYFEESGDPNVMLICLFCP (designed binder) [K13D variant of SEQ ID NO: 1]
1.27	GSPDEYIERAKECCKDGDIQCCLRYFEESGDPNVMLICLFCP (designed binder) [K14D variant of SEQ ID NO: 1]
-2.11	GSPPEYIERAKECCKKGDIQCCLRYFEESGDPNVMLICLFCP (designed binder) [D02P variant of SEQ ID NO: 1]
-5.46	GSPDEYIERWKECCKKGDIQCCLRYFEESGDPNVMLICLFCP (designed binder) [A08W variant of SEQ ID NO: 1]
0.7	GSPDEYIERAKECCGKGDIQCCLRYFEESGDPNVMLICLFCP (designed binder) [K13G variant of SEQ ID NO: 1]
-1.63	GSPYEYIERAKECCKKGDIQCCLRYFEESGDPNVMLICLFCP (designed binder) [D02Y variant of SEQ ID NO: 1]
1.11	GSPDEYIERAKECCKGGDIQCCLRYFEESGDPNVMLICLFCP (designed binder) [K14G variant of SEQ ID NO: 1]
-9.42	GSPDEYIERAKECCKKGDDQCCLRYFEESGDPNVMLICLFCP (designed binder) [I17D variant of SEQ ID NO: 1]
-0.19	GSPDEYIERAKECCKKGDIDCCLRYFEESGDPNVMLICLFCP (designed binder) [Q18D variant of SEQ ID NO: 1]
-1.58	GSPDEYIERAKWCCKKGDIQCCLRYFEESGDPNVMLICLFCP (designed binder) [E10W variant of SEQ ID NO: 1]
1.99	GSPDEYIERAKECCKKEDIQCCLRYFEESGDPNVMLICLFCP (designed binder) [G15E variant of SEQ ID NO: 1]
-0.4	GSPDEYIERAKECCMKGDIQCCLRYFEESGDPNVMLICLFCP (designed binder) [K13M variant of SEQ ID NO: 1]
3.18	GSPDEYIERAKECCKKHDIQCCLRYFEESGDPNVMLICLFCP (designed binder) [G15H variant of SEQ ID NO: 1]
-1.54	GSPDEYIERAKECCKKGDIKCCLRYFEESGDPNVMLICLFCP (designed binder) [Q18K variant of SEQ ID NO: 1]

enrichment score	Binder
-3.67	GSPDEYIERAKECCKKGDIRCCLRYFEESGDPNVMLICLFCP (designed binder) [Q18R variant of SEQ ID NO: 1]
-3.33	GSPDEYIERAKECCKKGDHQCCLRYFEESGDPNVMLICLFCP (designed binder) [I17H variant of SEQ ID NO: 1]
4.43	GSPDEYIERAKECCKKKDIQCCLRYFEESGDPNVMLICLFCP (designed binder) [G15K variant of SEQ ID NO: 1]
-1.01	GSPDEYIEYAKECCKKGDIQCCLRYFEESGDPNVMLICLFCP (designed binder) [R07Y variant of SEQ ID NO: 1]
-4.39	GSPDEYIERAKECCKKGDIHCCLRYFEESGDPNVMLICLFCP (designed binder) [Q18H variant of SEQ ID NO: 1]
-0.4	GSPDPYIERAKECCKKGDIQCCLRYFEESGDPNVMLICLFCP (designed binder) [E03P variant of SEQ ID NO: 1]
-0.84	GSPDEYIERAKECCKKGDIECCLRYFEESGDPNVMLICLFCP (designed binder) [Q18E variant of SEQ ID NO: 1]
-2.49	GSPDEYIEPAKECCKKGDIQCCLRYFEESGDPNVMLICLFCP (designed binder) [R07P variant of SEQ ID NO: 1]
1	GSPDEYIERAKECCKEGDIQCCLRYFEESGDPNVMLICLFCP (designed binder) [K14E variant of SEQ ID NO: 1]
-0.43	GSPDEYPERAKECCKKGDIQCCLRYFEESGDPNVMLICLFCP (designed binder) [I05P variant of SEQ ID NO: 1]
-4.7	GSPDEYIERPKECCKKGDIQCCLRYFEESGDPNVMLICLFCP (designed binder) [A08P variant of SEQ ID NO: 1]
-2.03	GSPDEYIERAKECCKKGDIGCCLRYFEESGDPNVMLICLFCP (designed binder) [Q18G variant of SEQ ID NO: 1]
-4.41	GSPDEYIERAWECCKKGDIQCCLRYFEESGDPNVMLICLFCP (designed binder) [K09W variant of SEQ ID NO: 1]
-3.35	GSPDEYIERYKECCKKGDIQCCLRYFEESGDPNVMLICLFCP (designed binder) [A08Y variant of SEQ ID NO: 1]
-0.44	GSPDEYIERAKECCHKGDIQCCLRYFEESGDPNVMLICLFCP (designed binder) [K13H variant of SEQ ID NO: 1]
0.46	GSPDEYIERAKECCKKGDRQCCLRYFEESGDPNVMLICLFCP (designed binder) [I17R variant of SEQ ID NO: 1]
-5.59	GSPDEYIERAKECCKKGRIQCCLRYFEESGDPNVMLICLFCP (designed binder) [D16R variant of SEQ ID NO: 1]
1.02	GSPDEPIERAKECCKKGDIQCCLRYFEESGDPNVMLICLFCP (designed binder) [Y04P variant of SEQ ID NO: 1]

From US20230151068A1
